Reference: US20240279331A1 (University of California, published 2024)

B1: NCR3.18 Fab (Fab)
heavy: EVQLVESGGGLVQPGGSLRLSCAASGFNVSSSSIHWVRQAPGKGLEWVASISSSSGSTSYADSVKGRFTISADTSKNTAYLQMNSLRAEDTAVYYCARRISSYYMSYYDSFYYAGMDYWGQGTLVTVSSASTKGPSVFPLAPSSKSTSGGTAALGCLVKDYFPEPVTVSWNSGALTSGVHTFPAVLQSSGLYSLSSVVTVPSSSLGTQTYICNVNHKPSNTKVDKKVEPKSCDKTHT
light: DIQMTQSPSSLSASVGDRVTITCRASQSVSSAVAWYQQKPGKAPKLLIYSASSLYSGVPSRFSGSRSGTDFTLTISSLQPEDFATYYCQQSSSSLITFGQGTKVEIKRTVAAPSVFIFPPSDSQLKSGTASVVCLLNNFYPREAKVQWKVDNALQSGNSQESVTEQDSKDSTYSLSSTLTLSKADYEKHKVYACEVTHQGLSSPVTKSFNRGEC
notes: also called parental NCR3.18 clone; anti-NCR3 Fab #78
B2: NCR3.12 Fab (Fab)
heavy: EVQLVESGGGLVQPGGSLRLSCAASGFNISSSSIHWVRQAPGKGLEWVAYISSSSGYTSYADSVKGRFTISADTSKNTAYLQMNSLRAEDTAVYYCARYSYFYGGYFYWTSWGAFDYWGQGTLVTVSSASTKGPSVFPLAPSSKSTSGGTAALGCLVKDYFPEPVTVSWNSGALTSGVHTFPAVLQSSGLYSLSSVVTVPSSSLGTQTYICNVNHKPSNTKVDKKVEPKSCDKTHT
light: DIQMTQSPSSLSASVGDRVTITCRASQSVSSAVAWYQQKPGKAPKLLIYSASSLYSGVPSRFSGSRSGTDFTLTISSLQPEDFATYYCQQSSYWPFTFGQGTKVEIKRTVAAPSVFIFPPSDSQLKSGTASVVCLLNNFYPREAKVQWKVDNALQSGNSQESVTEQDSKDSTYSLSSTLTLSKADYEKHKVYACEVTHQGLSSPVTKSFNRGEC
notes: also called anti-NCR3 Fab #72
B3: NCR3.19 Fab (Fab)
heavy: EVQLVESGGGLVQPGGSLRLSCAASGFNVYSYSIHWVRQAPGKGLEWVASIYSYYGSTSYADSVKGRFTISADTSKNTAYLQMNSLRAEDTAVYYCARWYQYYYIGTAAMDYWGQGTLVTVSSASTKGPSVFPLAPSSKSTSGGTAALGCLVKDYFPEPVTVSWNSGALTSGVHTFPAVLQSSGLYSLSSVVTVPSSSLGTQTYICNVNHKPSNTKVDKKVEPKSCDKTHT
light: DIQMTQSPSSLSASVGDRVTITCRASQSVSSAVAWYQQKPGKAPKLLIYSASSLYSGVPSRFSGSRSGTDFTLTISSLQPEDFATYYCQQQWYPLITFGQGTKVEIKRTVAAPSVFIFPPSDSQLKSGTASVVCLLNNFYPREAKVQWKVDNALQSGNSQESVTEQDSKDSTYSLSSTLTLSKADYEKHKVYACEVTHQGLSSPVTKSFNRGEC
notes: also called anti-NCR3 Fab #79
B4: CD16.03 Fab (Fab)
heavy: EVQLVESGGGLVQPGGSLRLSCAASGFNFSSYSIHWVRQAPGKGLEWVASIYSSSGSTSYADSVKGRFTISADTSKNTAYLQMNSLRAEDTAVYYCARWSYDQYYDQHGYYFYYWGFDYWGQGTLVTVSSASTKGPSVFPLAPSSKSTSGGTAALGCLVKDYFPEPVTVSWNSGALTSGVHTFPAVLQSSGLYSLSSVVTVPSSSLGTQTYICNVNHKPSNTKVDKKVEPKSCDKTHT
light: DIQMTQSPSSLSASVGDRVTITCRASQSVSSAVAWYQQKPGKAPKLLIYSASSLYSGVPSRFSGSRSGTDFTLTISSLQPEDFATYYCQQSSAELITFGQGTKVEIKRTVAAPSVFIFPPSDSQLKSGTASVVCLLNNFYPREAKVQWKVDNALQSGNSQESVTEQDSKDSTYSLSSTLTLSKADYEKHKVYACEVTHQGLSSPVTKSFNRGEC
notes: also called anti-CD16 Fab #3

Legend:
[1] = target: T1, NCR3 (antigen of the ELISA in the affinity-maturation table) (human, UniProt O14931 19-135, limits assumed); assay: ELISA, Fab on NCR3
T1 construct: also called Natural Cytotoxicity Triggering Receptor 3
T1 sequence (looked up): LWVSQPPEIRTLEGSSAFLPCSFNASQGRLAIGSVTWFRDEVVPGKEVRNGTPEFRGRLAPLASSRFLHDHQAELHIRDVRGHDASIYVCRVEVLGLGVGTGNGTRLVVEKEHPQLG

[2] = target: T2, NCR3 on cell (on-cell binding in the affinity-maturation table) (human, UniProt O14931 19-201, limits assumed); assay: on-cell binding, Fab on NCR3
T2 construct: On cell
T2 sequence (looked up): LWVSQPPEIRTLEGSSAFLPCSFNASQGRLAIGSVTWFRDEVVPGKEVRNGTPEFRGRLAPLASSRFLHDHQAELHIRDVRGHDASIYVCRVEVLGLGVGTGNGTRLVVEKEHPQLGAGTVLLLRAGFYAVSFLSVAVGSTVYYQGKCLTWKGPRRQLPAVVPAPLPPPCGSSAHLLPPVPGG

[3] = target: T3, TNFRSF9 extracellular domain fused to a generic transmembrane domain, on tetracycline-inducible FlpIn cells (UniProt Q07011 24-186); assay: flow cytometry, Fab on tetracycline-inducible cell lines over-expressing each ECD (FIG. S5)
T3 construct: extracellular domain; also called 4-1BB; not shown: transmembrane domain of platelet-derived growth factor (so in the source) with a HA tag
Method: (§1) To investigate the specificity of both activating and non-functional antibodies for their receptor targets, we developed a tetracycline-inducible cell line for each protein target—CD16, NCR1, NCR3, CD244, TNFRSF9, and TNFSF4. The ECDs of these proteins were fused to a generic transmembrane domain and were expressed upon tetracycline addition.
(§2) Titrations were performed on primary human NK cells or tetracycline induced overexpression cell lines as indicated. When tetracycline induced overexpression cell lines were used, cells were dosed with 10 μg/mL tetracycline for 2 days prior to staining. The starting concentration of each Fab or bispecific antibody was 1 μM, and serial 1:5 dilutions were performed. Antibodies were incubated with cells for 1 hr at 4° C., washed 2 times in 3% BSA in PBS pH 7.4, and stained for 30 min with an Alexafluor-647 conjugated goat anti-human IgG F(ab′)2 fragment (Jackson ImmunoResearch Laboratories) at a 1:50 dilution. After an additional 3 washes, cells were fixed and fluorescence was quantified using a CytoFLEX (Beckman Coulter). All flow cytometry data were analyzed using FlowJo software.

[4] = target: T4, TNFSF4 extracellular domain fused to a generic transmembrane domain, on tetracycline-inducible FlpIn cells (UniProt P23510 51-183); assay: as above
T4 construct: extracellular domain; also called OX40L; not shown: transmembrane domain of platelet-derived growth factor (so in the source) with a HA tag
T4 sequence (looked up): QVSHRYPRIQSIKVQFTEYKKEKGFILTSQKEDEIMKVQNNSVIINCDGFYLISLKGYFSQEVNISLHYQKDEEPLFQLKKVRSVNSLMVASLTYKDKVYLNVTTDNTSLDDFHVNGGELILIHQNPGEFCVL
Method: as §1, §2

[5] = target: T5, NCR1 extracellular domain fused to a generic transmembrane domain, on tetracycline-inducible FlpIn cells (human, UniProt O76036 22-258); assay: as above
T5 construct: extracellular domain; HEK293 FlpIn cells, expression on tetracycline addition; also called NCR1 over expression cell line; not shown: transmembrane domain of platelet-derived growth factor (so in the source) with a HA tag
T5 sequence (O76036 22-258): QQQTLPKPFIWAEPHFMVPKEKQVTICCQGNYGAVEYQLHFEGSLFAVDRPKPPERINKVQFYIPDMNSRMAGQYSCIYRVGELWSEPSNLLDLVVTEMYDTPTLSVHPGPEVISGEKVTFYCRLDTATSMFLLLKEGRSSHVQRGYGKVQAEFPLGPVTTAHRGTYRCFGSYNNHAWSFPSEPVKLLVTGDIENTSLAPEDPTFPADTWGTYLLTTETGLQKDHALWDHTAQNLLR
Method: as §1, §2

[6] = target: T6, CD16 extracellular domain fused to a generic transmembrane domain, on tetracycline-inducible FlpIn cells (human, UniProt P08637 17-208); assay: as above
T6 construct: extracellular domain; HEK293 FlpIn cells, expression on tetracycline addition; also called CD16 over expression cell line; CD16A; not shown: transmembrane domain of platelet-derived growth factor (so in the source) with a HA tag
T6 sequence (P08637 17-208): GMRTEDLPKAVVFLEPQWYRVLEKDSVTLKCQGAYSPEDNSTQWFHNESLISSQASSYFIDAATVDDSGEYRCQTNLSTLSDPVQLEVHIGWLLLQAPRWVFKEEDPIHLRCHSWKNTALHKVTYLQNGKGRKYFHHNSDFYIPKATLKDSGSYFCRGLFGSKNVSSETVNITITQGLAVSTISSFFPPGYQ
Method: as §1, §2

[7] = target: T7, CD244 extracellular domain fused to a generic transmembrane domain, on tetracycline-inducible FlpIn cells (UniProt Q9BZW8 22-229); assay: as above
T7 construct: extracellular domain; not shown: transmembrane domain of platelet-derived growth factor (so in the source) with a HA tag
T7 sequence (looked up): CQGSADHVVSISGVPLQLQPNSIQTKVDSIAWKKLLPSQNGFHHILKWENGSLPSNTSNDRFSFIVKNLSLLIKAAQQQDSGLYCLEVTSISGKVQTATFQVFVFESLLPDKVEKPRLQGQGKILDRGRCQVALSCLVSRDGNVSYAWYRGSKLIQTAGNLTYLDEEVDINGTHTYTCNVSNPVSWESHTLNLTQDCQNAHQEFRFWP
Method: as §1, §2

[8] = target: T8, NCR3 extracellular domain TEV-cleavable Fc-fusion, biotinylated (human, UniProt O14931 19-135, biotinylated (site not stated)); assay: Fab-phage selection and Fab-phage ELISA on biotinylated ECD Fc-fusion (antigen column of Table S1)
T8 construct: extracellular domain; Antigen of the phage selections and Fab-phage ELISAs; not shown: TEV cleavage site and Fc domain
T8 sequence (looked up): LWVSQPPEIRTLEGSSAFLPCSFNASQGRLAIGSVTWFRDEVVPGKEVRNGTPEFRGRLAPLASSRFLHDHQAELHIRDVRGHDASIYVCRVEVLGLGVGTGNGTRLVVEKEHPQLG
Method: (§3) To generate antibodies against these antigens, we expressed the extracellular domains (ECDs) of these proteins as TEV-cleavable Fc-fusions and performed Fab-phage display selections to enrich for high affinity antibody binders (FIG. S1), as previously described [Hornsby, M. et al., Mol Cell Proteomics. 14(10), 2833-2847 (2015)]. After each selection, Fab-phage ELISAs were performed to determine the relative affinity and selectivity of these binders for their antigen targets (FIG. S2).
(§4) TEV-cleavable Fc-fusion proteins were expressed and biotinylated in Expi293F cells using the standard expression protocol. Media were harvested after 4 days of expression and protein was purified by protein A affinity chromatography. Phage selections were performed according to previously established protocols1 with the Fab-phage Library E2. Non-specific binders were depleted from the library by incubating the phage pool with Fc-domain immobilized on streptavidin beads. Fab phage were selected using biotinylated Fc-fusions that were captured on streptavidin-coated magnetic beads, and were released through TEV elution. Each selection consists of four rounds. With each round, decreasing amounts of Fc-fusions (1 μM, 100 nM, 10 nM, and […]) were used. ELISAs were performed for 96 individual Fab-phage clones from the third or fourth rounds of selection to evaluate for affinity and selectivity.
(§5) ELISAs were performed as previously described1. In brief, Maxisorp plates were coated with 10 μg/mL of Neutravidin overnight at 4° C. Biotinylated target antigen (20 nM) was captured on the Neutravidin coated plates for 30 min, and then exposed to a 1:5 dilution of phage supernatants for 30 min. Bound phage were detected via a horseradish-peroxidase-conjugated anti-phage monoclonal antibody (GE Lifesciences).

[9] = target: T9, NCR3 extracellular domain fused to a generic transmembrane domain, on tetracycline-inducible FlpIn cells (human, UniProt O14931 19-135); assay: flow cytometry, Fab on tetracycline-inducible cells over-expressing the ECD (FIG. S5)
T9 construct: extracellular domain; HEK293 FlpIn cells, expression on tetracycline addition; also called NCR3 over expression cell line; not shown: transmembrane domain of platelet-derived growth factor (so in the source) with a HA tag
T9 sequence (looked up): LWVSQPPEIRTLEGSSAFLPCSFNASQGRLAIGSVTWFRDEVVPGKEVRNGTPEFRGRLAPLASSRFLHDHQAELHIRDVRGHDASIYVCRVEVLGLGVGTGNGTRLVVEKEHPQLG
Method: as §1, §2

[10] = target: T10, NCR3 as expressed on NK cells (human, UniProt O14931 19-201); assay: flow cytometry, Fab titration on peripheral blood NK cells (FIG. S6)
T10 construct: whole, on cells; Primary human peripheral blood NK cells; NK92MI cells in the bispecific cytotoxicity assay; also called peripheral blood NK cells; NCR3+ NK92MI cells
T10 sequence (looked up): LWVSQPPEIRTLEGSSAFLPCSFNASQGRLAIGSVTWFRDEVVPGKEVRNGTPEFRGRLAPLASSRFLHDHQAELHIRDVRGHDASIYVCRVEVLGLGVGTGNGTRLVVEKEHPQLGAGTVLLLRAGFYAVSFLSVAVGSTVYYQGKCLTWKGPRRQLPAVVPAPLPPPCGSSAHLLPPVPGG
Method: (§6) To evaluate the affinity of the selected antibodies for NK cells, we titrated the nine Fab clones on peripheral blood NK cells.
as §2

[11] = target: T11, CD16 extracellular domain TEV-cleavable Fc-fusion, biotinylated (human, UniProt P08637 17-208, biotinylated (site not stated)); assay: Fab-phage selection and Fab-phage ELISA on biotinylated ECD Fc-fusion (antigen column of Table S1)
T11 construct: extracellular domain; Antigen of the phage selections and Fab-phage ELISAs; also called CD16A; not shown: TEV cleavage site and Fc domain
T11 sequence (P08637 17-208): as the sequence (P08637 17-208) above
Method: as §3, §4, §5

[12] = target: T6, CD16 extracellular domain fused to a …; assay: flow cytometry, Fab on tetracycline-inducible cells over-expressing the ECD (FIG. S5)
Method: as §1, §2

[13] = target: T9, NCR3 extracellular domain fused to a …; assay: flow cytometry, Fab on tetracycline-inducible cell lines over-expressing each ECD (FIG. S5)
Method: as §1, §2

[14] = target: T12, CD16 as expressed on NK cells (human, UniProt P08637 17-254); assay: flow cytometry, Fab titration on peripheral blood NK cells (FIG. S6)
T12 construct: whole, on cells; Primary human peripheral blood NK cells; PBMCs in the bispecific cytotoxicity assay; also called peripheral blood NK cells; PBMCs
T12 sequence (P08637 17-254): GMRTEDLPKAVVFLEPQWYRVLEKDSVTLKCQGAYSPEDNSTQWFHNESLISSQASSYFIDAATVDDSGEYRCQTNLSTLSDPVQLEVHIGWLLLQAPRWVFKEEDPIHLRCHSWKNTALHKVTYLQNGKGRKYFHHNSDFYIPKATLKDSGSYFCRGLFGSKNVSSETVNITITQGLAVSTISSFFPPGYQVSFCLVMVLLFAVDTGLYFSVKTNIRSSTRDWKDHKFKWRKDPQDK
Method: as §6, §2

Binder	EC50 [1] [nM]	EC50 [2] [nM]	binding result [3]	binding result [4]	binding result [5]	binding result [6]	binding result [7]	binding result [8]	binding result [9]	binding result [10]	binding result [11]	binding result [12]	binding result [13]	binding result [14]
B1	1.63	2.27	no binding	no binding	no binding	no binding	no binding	–	–	–	–	–	–	–
B2	–	–	no binding	no binding	no binding	no binding	no binding	binds	binds	binds	–	–	–	–
B3	–	–	no binding	no binding	no binding	no binding	no binding	binds	binds	binds	–	–	–	–
B4	–	–	no binding	no binding	no binding	–	no binding	–	–	–	binds	binds	no binding	binds
